Assay [1] deals with T1, human PCSK9 (proprotein convertase subtilisin kexin type 9) (human, UniProt Q8NBP7 31-692).
T1 construct: immobilized directly (ProteOn), biotinylated (Octet) or in solution, according to the assay; also called hPCSK9; PCSK9-AF647 (labelled form)
As to the kind of experiment: PCSK9:ATI-972 FRET at 5 nM human PCSK9, competitor biotinylated ATI-972.

Assay [2] concerns the target T2, rhesus serum albumin (rhesus, UniProt Q28522 17-600).
T2 construct: also called RhSA
The assay is described as follows: SPR (Biacore), albumin captured on chip, SABA in flow. Here is the method: (§1) The kinetics of selected SABA clones purified from HTPP and/or midscaled material described in Examples 5A and 5B were determined by capturing the respective serum albumin (HSA/RhSA/MuSA) on the surface of a Biasensor CMS chip and flowing a concentration series of SABAs over both the reference flow cell and the captured albumins. In addition, binding to albumin was carried out under various pH conditions ranging from pH 5.5 to pH 7.4.

For assay [3], the target named is T3, human serum albumin (human, UniProt P02768 25-609).
T3 construct: also called HSA
The assay is described as above. As to the method:
as §1

Assay [4] concerns the target T4, murine serum albumin (mouse, UniProt P07724 25-608).
T4 construct: also called MuSA; mouse serum albumin
The assay is described as follows: SPR, captured albumin. As to the method: as §1
Background: SPR reads the build-up and loss of mass on a sensor chip optically.

For assay [5], the target named is T5, human PCSK9 (proprotein convertase subtilisin kexin type 9) (human, UniProt Q8NBP7 31-692).
T5 construct: Directly immobilized (SPR ProteOn), biotinylated (BLI), or in solution, depending on the assay; also called hPCSK9
As to the kind of experiment: BLI, biotinylated hPCSK9 on sensor tips.

The target of assay [6] is T5, human PCSK9 (proprotein convertase …). As to the kind of experiment: BLI Octet Red, 37 C. On the technique in general: Biolayer interferometry detects binding as a change in optical thickness at a sensor tip.
Assay [7] shares this target. The assay is described as follows: FRET, competitor EGFA peptide. From the text:
(§2) Table 11 summarizes the overall data from these three FRET assays.

The target of assay [8] is T6, cynomolgus monkey PCSK9 (cynomolgus monkey, UniProt A0A7N9D9N8 150-747).
T6 construct: also called cyno PCSK9; cPCSK9
The assay is described as follows: FRET, competitor EGFA peptide.
Text: as §2

Assay [9] concerns the target T1, human PCSK9 (proprotein convertase …). The assay is described as follows: cell-based or functional assay.
Assay [10] has the same target. The assay is described as follows: PCSK9:EGFA FRET at 5 nM PCSK9, competitor EGFA peptide.
Assay [11] has the same target. The assay is described as follows: PCSK9:EGFA FRET, competitor EGFA peptide.
Assay [12] shares this target. The assay is described as follows: ITC, 37 C. (In general: ITC needs no label: the signal is the heat of the interaction.)
For assay [13] the target is unchanged. As to the kind of experiment: cell-based or functional assay. This is another data set of the same source.
Assay [14] concerns the target cynomolgus monkey PCSK9 (cynomolgus monkey, UniProt A0A7N9D9N8 150-747). As to the kind of experiment: FRET, competitor EGFA peptide.
Text: as §2

The target in assay [15] is T5, human PCSK9 (proprotein convertase …). As to the kind of experiment: FRET direct binding, anti-his6 antibody.
Text: as §2

Assay [16] shares this target. The assay is described as follows: SPR ProteOn, 25 C. As to the method: (§3) The binding characteristics were characterized by Surface Plasmon Resonance (SPR). […] This allowed kinetic determination in the absence of regeneration. […] Evaluation of the kinetic parameters was performed using the Langmuir interaction model and constant parameter fitting with the ProteOn Manager software.

For assay [17] the target is unchanged. As to the kind of experiment: SPR ProteOn, PCSK9 immobilized, 25 C. As to the method:
as §3

Assay [18] has the same target. As to the kind of experiment: cell-based or functional assay. The source holds these as a separate data set.
For assay [19] the target is unchanged. The assay is described as follows: FRET, competitor ATI000972.
Text: as §2

The target in assay [20] is T1, human PCSK9 (proprotein convertase …). As to the kind of experiment: SPR (ProteOn), 25 C.
Assay [21] concerns the target T7, Cynomolgus PCSK9 (cynomolgus monkey, UniProt A0A7N9D9N8 150-747).
T7 construct: also called cyno PCSK9; cPCSK9
As to the kind of experiment: SPR (ProteOn), PCSK9 immobilized directly, 25 C. Here is the method: as §3

Where “and” joins values, the source holds several entries; their conditions need not be identical. Equal values may be shown once. Read-outs that look alike come from different tables or passages of the source.

B1: ATI001114 (designed binder)
chain: MGVSDVPRDLEVVAATPTSLLISWVPPSDDYGYYRITYGETGGNSPVQEFTVPIGKGTATISGLKPGVDYTITVYAVEFPWPHAGYYHRPISINYRTGSGCHHHHHH
modifications: 40 kDa two-branched PEG on the cysteine of the C-terminal tail (GSGC)
notes: also called ATI1114
In [1], B1 registered an EC50 of 0.8 nM.

B2: SABA3.1 (designed binder)
chain: MGVSDVPRDLEVVAATPTSLLISWSNDGPGLSYYRITYGETGGNSPVQEFTVPSSQTTATISGLKPGVDYTITVYAVSYYTKKAYSAGPISINYRTEIDKPSQHHHHHH
notes: also called clone 1245H07
As to B2, in assay [2], the Kd came out at 431 nM and the koff was 0.0337 s⁻¹. In addition, in assay [3], the Kd is 863 nM and the koff worked out at 0.0682 s⁻¹.

B3: SABA3.1 (designed binder)
chain: MGVSDVPRDLEVVAATPTSLLISWSNDGPGLSYYRITYGETGGNSPVQEFTVPSSQTTATISGLKPGVDYTITVYAVSYYTKKAYSAGPISINYRTEIDKPSQHHHHHH
notes: also called clone 1245H07
For B3, in assay [4], the binding result is reported as “no binding”.

B4: SABA4.1 (designed binder)
chain: MGVSDVPRDLEMVAATPTSLLISWEDDSYYSRYYRITYGETGGNSPVQEFTVPSDLYTATISGLKPGVDYTITVYAVTYDVTDLIMHEPISINYRTEIDKPSQHHHHHH
For the molecule B4, the binding result in [4] is “no binding”.

B5: 2382D05 (designed binder)
chain: MGVSDVPRDLEVVAATPTSLLISWDAPADGGYGYYRITYGETGGNSPVQEFTVPVSKGTATISGLKPGVDYTITVYAVEFDFPGAGYYHRPISINYRTEIDKPSQHHHHHH
notes: Anti-PCSK9 Adnectin, His6-tagged; Same entry as 2451B06
In assay [5], B5 yielded a Kd of 0.314 nM, a koff of 0.000157 s⁻¹ and a kon of 505000 M⁻¹ s⁻¹. This molecule came in with a Kd in [6] of 0.314 nM. Moreover, in assay [7], the concentration giving a half-maximal response (EC50) was 2.6 nM. The EC50 in assay [8] was 57.8 nM.

B6: 2451B06 (designed binder)
chain: MGVSDVPRDLEVVAATPTSLLISWDAPADGGYGYYRITYGETGGNSPVQEFTVPVSKGTATISGLKPGVDYTITVYAVEFDFPGAGYYHRPISINYRTEIDKPSQHHHHHH
notes: Anti-PCSK9 Adnectin, His6-tagged; also called 2451B06 (equivalent to 2382D05)
With B6, the EC50 in assay [7] turned out to be 4.5 nM; in [8], 57.8 nM.

B7: ATI001174 (designed binder)
chain: MGVSDVPRDLEVVAATPTSLLISWVPPSDDYGYYRITYGETGGNSPVQEFTVPIGKGTATISGLKPGVDYTITVYAVEFPWPHAGYYHRPISINYRTEIEKPCQ
modifications: PEG on the cysteine of the C-terminal tail (EIEKPCQ)
notes: also called ATI-1174; ATI1174
On to B7, for which, in assay [9], the “PCSK9-induced LDLR depletion in HepG2 cells, EC50” value was 8 nM and the “inhibition of PCSK9-AF647 intracellular fluorescence in HepG2 cells, EC50” value worked out at 10 nM. In assay [10], this molecule showed an EC50 of 1.9 nM.

B8: 1784F03 (designed binder)
chain: MGVSDVPRDLEVVAATPTSLLISWRPPIHAYGYYRITYGETGGNSPVQEFTVPIVEGTATISGLKPGVDYTITVYAVEYTFKHSGYYHRPISINYRTEIDKPSQHHHHHH
In [11], B8 registered an EC50 of 2 nM. Further, in assay [9], the “DiI-LDL uptake in HepG2 cells, EC50” value is 210 nM; the “EC50 (nM), PCSK9-induced LDLR depletion from HepG2 cell surface” value came out at 16 nM; the “percentage of PCSK9 inhibition at 75 nM” value worked out at 150%. The Kd in assay [12] turned out to be 3.8 nM. Moreover, in assay [13], the “LDLR Depletion (% inhibition at 75 nM)” value is 150% and the “LDLR Depletion EC50” value is 26 nM.

B9: 1459D05 (designed binder)
chain: MGVSDVPRDLEVVAATPTSLLISWPPPSHGYGYYRITYGETGGNSPVQEFTVPPGKGTATISGLKPGVDYTITVYAVEYPYKHSGYYHRPISINYRTEIDKPSQHHHHHH
notes: also called ATI000891; ATI-891
In the case of B9, the on-rate constant (kon) was 149000 M⁻¹ s⁻¹ and 108000 M⁻¹ s⁻¹ in assay [5]; 113000 M⁻¹ s⁻¹ in assay [17]. The Kd in assay [6] turned out to be 14.4 nM; in [16], 1.58 nM; in assay [17], 1.58 nM. The EC50 in [7] was 5.8 nM; in [14], more than 1000 nM; in assay [15], 3.9 nM. The IC50 in assay [7] came out at 4 nM; in assay [14] it was 2300 nM; in [19] it was 14 nM. This molecule came in with a koff in assay [17] of 0.00018 s⁻¹. For the same molecule, in [18], the “LDLR Depletion EC50” value is more than 200 nM.

B10: 1923B02 (designed binder)
chain: MGVSDVPRDLEVVAATPTSLLISWTPPPKGYGYYRITYGETGGNSPVQEFTVPVGEGTATISGLKPGVDYTITVYAVEYTYNGAGYYHRPISINYRTEIDKPSQHHHHHH
notes: Anti-PCSK9 Adnectin, His6-tagged
With B10, the results for the EC50 in assay [7], in assay [14] and in assay [15] were 2.3 nM, 53.5 nM and 3.2 nM, respectively. The IC50 is 2.3 nM in assay [7] and 3.2 nM in assay [19]. Also, binding in assay [16] was characterised by a dissociation constant (Kd) of 0.17 nM. Further, the “LDLR Depletion EC50” value in assay [18] is 23 nM.

B11: 1813E02 (designed binder)
chain: MGVSDVPRDLEVVAATPTSLLISWSPPANGYGYYRITYGETGGNSPVQEFTVPVGRGTATISGLKPGVDYTITVYAVEYTYKGSGYYHRPISINYRTEIDKPSQHHHHHH
The molecule B11 gave a concentration for a half-maximal effect (EC50) in assay [11] of 1.3 nM. Further, the Kd in assay [12] is less than 2 nM. Moreover, the “LDLR Depletion EC50” value in assay [13] came out at 16 nM.

B12: 2012A04 (designed binder)
chain: MGVSDVPRDLEVVAATPTSLLISWRPPSNGHGYYRITYGETGGNSPVQEFTVPVNEGTATISGLKPGVDYTITVYAVEFPFKWSGYYHRPISINYRTEIDKPSQHHHHHH
B12 came in with an EC50 in assay [11] of 2.1 nM. Also, in [9], the “DiI-LDL uptake in HepG2 cells, EC50” value came out at 130 nM; the “EC50 (nM), PCSK9-induced LDLR depletion from HepG2 cell surface” value came to 7.78 nM; the “percentage of PCSK9 inhibition at 75 nM” value was found to be 190%. For the same molecule, the dissociation constant (Kd) in assay [20] is 0.25 nM. Moreover, in [13], the “LDLR Depletion (% inhibition at 75 nM)” value is 144% and the “LDLR Depletion EC50” value worked out at 12 nM. Further, binding in [21] was put at a Kd of 24 nM.

B13: SABA2.1 (designed binder)
chain: MGVSDVPRDLEVVAATPTSLLISWPKYDKTGHYYRITYGETGGNSPVQEFTVPTRQTTATISGLKPGVDYTITVYAVSKDDYYPHEHRPISINYRTEIDKPSQHHHHHH
With B13, the binding result in assay [4] was “no binding”.

B14: SABA1.1 (designed binder)
chain: MGVSDVPRDLEVVAATPTSLLISWHSYYEQNSYYRITYGETGGNSPVQEFTVPYSQTTATISGLKPGVDYTITVYAVYGSKYYYPISINYRTEIDKPSQHHHHHH
notes: core 1 10Fn3 with His6; also called clone 1318H04
As to B14, the binding result in assay [4] is listed as “no binding”.

For orientation: EC50 means the concentration needed to bring the measured effect to its halfway point. What is called Kd is the constant that tells how readily two partners part at equilibrium. As usually defined, the koff is the first-order rate constant of dissociation. What is called kon is the second-order rate constant of association. The term IC50 denotes the concentration that inhibits the measured activity by half.

(Values after patent US20120094909A1 (Bristol-Myers Squibb, published 2012).)
